Data taken from PMC8287548.

How the values were obtained:
[1] = target: SpyCatcher-HPF (not stated | Helicobacter pylori); assay: SPR
[2] = target: SpyCatcher-HPF (not stated | Helicobacter pylori); assay: covalent conjugation

In the case of “SpyTag-RBD (from UniProt P0DTC2 319-541)”, the Kd [1] is reported as 2680 nM and the conjugation efficiency [2] is reported as < 40%.
